Measurements as given in US20220411491A1 (Hoffmann-La Roche, published 2022).

T1: B-cell maturation antigen (BCMA) (UniProt Q02223 1-184, limits assumed)
T1 sequence (looked up): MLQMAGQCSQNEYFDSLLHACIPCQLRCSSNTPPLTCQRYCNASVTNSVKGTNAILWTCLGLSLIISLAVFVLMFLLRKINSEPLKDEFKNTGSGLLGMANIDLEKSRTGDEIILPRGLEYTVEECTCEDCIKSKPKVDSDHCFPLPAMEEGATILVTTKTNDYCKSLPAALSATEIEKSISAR

B1: 5E11g2 (antibody, human IgG1, kappa, V domains shown)
VH: ELQLEQSGGGLVQPGGSLTLSCAASGFTFSKYAMAWVRQAPTKGLEWVASISTGGVNTYYRDSVKARFTISRDNAKNTQYLQMDSLRSEDTATYYCATHTGDYFDYWGQGVMVTVSS
VL: DIVLTQSPALAVSPGQRATISCRASQSVSISGINLMNWYQQKPGQQPKLLIYHASILASGIPTRFSGSGSGTDFTLTIDPVQADDIATYYCQQTRESPLTFGSGTNLEIKR
notes: Glyco-engineered human IgG1 (GlycoMab technology); afucosylation degree 59.1%; also called BSH-5E11-G7 hu IgG1 G2
B2: 5F11g2 (antibody, human IgG1, kappa, V domains shown)
VH: EVQLVESGGGLVQPGRSLKLSCAASGFSFSNYGMAWVRQAATKGLEWVASISTGGGNTYYRDSVKGRFIVSRDNAKNTQYLQMDSLRSEDTATYYCTRHDRGGLYWGQGVMVTVSS
VL: DIVMTQAPLSVSVTPGESASISCRSSKSLLHSNGITYVYWYFQKPGKSPQVLIYRMSNLASGVPDRFSGSGSETDFTLKISRVEAEDVGIYHCGQLLENPYTFGAGTELELKR
B3: 5E11-TCB (bispecific antibody, human IgG1, kappa, L234A L235A)
light 1: DIVLTQSPALAVSPGQRATISCRASQSVSISGINLMNWYQQKPGQQPKLLIYHASILASGIPTRFSGSGSGTDFTLTIDPVQADDIATYYCQQTRESPLTFGSGTNLEIKRTVAAPSVFIFPPSDRKLKSGTASVVCLLNNFYPREAKVQWKVDNALQSGNSQESVTEQDSKDSTYSLSSTLTLSKADYEKHKVYACEVTHQGLSSPVTKSFNRGEC
light 2: EVQLLESGGGLVQPGGSLRLSCAASGFTFSTYAMNWVRQAPGKGLEWVSRIRSKYNNYATYYADSVKGRFTISRDDSKNTLYLQMNSLRAEDTAVYYCVRHGNFGNSYVSWFAYWGQGTLVTVSSASVAAPSVFIFPPSDEQLKSGTASVVCLLNNFYPREAKVQWKVDNALQSGNSQESVTEQDSKDSTYSLSSTLTLSKADYEKHKVYACEVTHQGLSSPVTKSFNRGEC
heavy 1: ELQLEQSGGGLVQPGGSLTLSCAASGFTFSKYAMAWVRQAPTKGLEWVASISTGGVNTYYRDSVKARFTISRDNAKNTQYLQMDSLRSEDTATYYCATHTGDYFDYWGQGVMVTVSSASTKGPSVFPLAPSSKSTSGGTAALGCLVEDYFPEPVTVSWNSGALTSGVHTFPAVLQSSGLYSLSSVVTVPSSSLGTQTYICNVNHKPSNTKVDEKVEPKSCDKTHTCPPCPAPEAAGGPSVFLFPPKPKDTLMISRTPEVTCVVVDVSHEDPEVKFNWYVDGVEVHNAKTKPREEQYNSTYRVVSVLTVLHQDWLNGKEYKCKVSNKALGAPIEKTISKAKGQPREPQVCTLPPSRDELTKNQVSLSCAVKGFYPSDIAVEWESNGQPENNYKTTPPVLDSDGSFFLVSKLTVDKSRWQQGNVFSCSVMHEALHNHYTQKSLSLSPGK
heavy 2: not shown
B4: BCMA-TCB (bispecific antibody, human IgG1, kappa, L234A L235A)
heavy 1: EVQLLESGGGLVQPGGSLRLSCAASGFTFSSYAMNWVRQAPGKGLEWVSAITASGGSTYYADSVKGRFTISRDNSKNTLYLQMNSLRAEDTAVYYCARYWPMSLWGQGTLVTVSSASTKGPSVFPLAPSSKSTSGGTAALGCLVEDYFPEPVTVSWNSGALTSGVHTFPAVLQSSGLYSLSSVVTVPSSSLGTQTYICNVNHKPSNTKVDEKVEPKSCDKTHTCPPCPAPEAAGGPSVFLFPPKPKDTLMISRTPEVTCVVVDVSHEDPEVKFNWYVDGVEVHNAKTKPREEQYNSTYRVVSVLTVLHQDWLNGKEYKCKVSNKALGAPIEKTISKAKGQPREPQVCTLPPSRDELTKNQVSLSCAVKGFYPSDIAVEWESNGQPENNYKTTPPVLDSDGSFFLVSKLTVDKSRWQQGNVFSCSVMHEALHNHYTQKSLSLSPGK
light 1: EIVLTQSPGTLSLSPGERATLSCRASQSVSAYYLAWYQQKPGQAPRLLMYDASIRATGIPDRFSGSGSGTDFTLTISRLEPEDFAVYYCQQYERWPLTFGQGTKVEIKRTVAAPSVFIFPPSDRKLKSGTASVVCLLNNFYPREAKVQWKVDNALQSGNSQESVTEQDSKDSTYSLSSTLTLSKADYEKHKVYACEVTHQGLSSPVTKSFNRGEC
heavy 2: not shown
light 2: B3 light 2
B5: 5F11-TCB (bispecific antibody, human IgG1, kappa, L234A L235A)
light 1: DIVMTQAPLSVSVTPGESASISCRSSKSLLHSNGITYVYWYFQKPGKSPQVLIYRMSNLASGVPDRFSGSGSETDFTLKISRVEAEDVGIYHCGQLLENPYTFGAGTELELKRTVAAPSVFIFPPSDRKLKSGTASVVCLLNNFYPREAKVQWKVDNALQSGNSQESVTEQDSKDSTYSLSSTLTLSKADYEKHKVYACEVTHQGLSSPVTKSFNRGEC
light 2: B3 light 2
heavy 1: EVQLVESGGGLVQPGRSLKLSCAASGFSFSNYGMAWVRQAATKGLEWVASISTGGGNTYYRDSVKGRFIVSRDNAKNTQYLQMDSLRSEDTATYYCTRHDRGGLYWGQGVMVTVSSASTKGPSVFPLAPSSKSTSGGTAALGCLVEDYFPEPVTVSWNSGALTSGVHTFPAVLQSSGLYSLSSVVTVPSSSLGTQTYICNVNHKPSNTKVDEKVEPKSCDKTHTCPPCPAPEAAGGPSVFLFPPKPKDTLMISRTPEVTCVVVDVSHEDPEVKFNWYVDGVEVHNAKTKPREEQYNSTYRVVSVLTVLHQDWLNGKEYKCKVSNKALGAPIEKTISKAKGQPREPQVCTLPPSRDELTKNQVSLSCAVKGFYPSDIAVEWESNGQPENNYKTTPPVLDSDGSFFLVSKLTVDKSRWQQGNVFSCSVMHEALHNHYTQKSLSLSPGK
heavy 2: not shown

Tests used:
human GPRC5D [1] = target: T2, human GPRC5D (human, UniProt Q9NZD1 1-345); assay: cell-based or functional assay
human GPRC5D [2] = target: T2, human GPRC5D; assay: flow cytometry on NCI-H929 cells expressing human GPRC5D
Procedure: To measure the binding to GPRC5D, we performed a flow cytometry-based binding assay on reported multiple myeloma cell lines (Lombardi et al., Molecular characterization of human multiple myeloma cell lines by integrative genomics: insights into the biology of the disease; Genes Chromosomes Cancer. 2007 March; 46(3):226-38.). The cell line NCI-H929 (ATCC® CRL-9068) was cultured in RPMI 1640 with Glutamax medium (Gibco) supplemented with 10% FBS, 1× Penicillin/Streptomycin (Gibco), lx Sodium Pyruvate (Gibco) and 50 μM beta-mercaptoethanol (Gibco).
0.1 Mio cells per well of a 96-round-bottom-well plate were incubated with 150 nM to 15 fM (serial dilutions of 1:10) of the indicated GPRC5D IgG constructs 5E11g2 and 5F11g2 or no construct for 30 min at 4° C. […] After two final washing steps, flow cytometric acquisition was performed on a custom-designed BD Biosciences Fortessa and analyzed using BD Diva. EC50 values were calculated, using GraphPad Prism software. […] None of the antibodies reaches saturation in the assessed concentration range.

human GPRC5D [3] = target: T2, human GPRC5D; assay: cell-based or functional assay; remark: listed apart in the source
human GPRC5D [4] = target: T2, human GPRC5D; assay: cell-based or functional assay; remark: listed apart in the source
[5] = target: T1, B-cell maturation antigen (BCMA); assay: cell-based or functional assay

T2 sequence (Q9NZD1 whole entry): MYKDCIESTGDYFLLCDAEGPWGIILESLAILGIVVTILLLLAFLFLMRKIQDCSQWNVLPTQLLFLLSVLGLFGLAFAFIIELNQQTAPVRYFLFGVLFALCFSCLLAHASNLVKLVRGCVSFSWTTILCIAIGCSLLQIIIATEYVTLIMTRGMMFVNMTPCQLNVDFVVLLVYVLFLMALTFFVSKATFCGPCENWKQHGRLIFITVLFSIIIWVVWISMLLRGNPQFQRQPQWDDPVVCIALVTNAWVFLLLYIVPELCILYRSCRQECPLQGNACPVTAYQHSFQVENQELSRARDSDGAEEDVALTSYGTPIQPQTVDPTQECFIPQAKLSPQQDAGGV

Row | Binder | EC50 of GPRC5D-IgG induced tumor cell lysis (ADCC, LDH release), AMO-1 (human GPRC5D [1]) | EC50 of GPRC5D-IgG induced tumor cell lysis (ADCC, LDH release), NCI-H929 (human GPRC5D [1]) | EC50 of T cell mediated killing, AMO-1 cells (LDH release) (human GPRC5D [3]) | EC50 of T cell mediated killing, L363 cells (LDH release) (human GPRC5D [3]) | EC50 of T cell mediated killing, NCI-H929 cells (LDH release) (human GPRC5D [3]) | EC50 of T cell mediated killing, RPMI-8226 cells (LDH release) (human GPRC5D [3]) | EC50 of in vitro killing, AMO-1 (human GPRC5D [4]) | EC50 of in vitro killing, EJM (human GPRC5D [4]) | EC50 of in vitro killing, L363 (human GPRC5D [4]) | EC50 of in vitro killing, MOLP-2 (human GPRC5D [4]) | EC50 of in vitro killing, NCI-H929 (human GPRC5D [4]) | EC50 of in vitro killing, OPM-2 (human GPRC5D [4]) | EC50 of in vitro killing, RPMI (human GPRC5D [4]) | also measured
1 | B1 | 0.405 nM | 0.084 nM | – | – | – | – | – | – | – | – | – | – | – | EC50 (human GPRC5D [2]): ~69.5 nM
2 | B2 | 0.096 nM | 0.048 nM | – | – | – | – | – | – | – | – | – | – | – | –
3 | B3 | – | – | 0.014 nM | 0.012 nM | 0.007 nM | 0.024 nM | 0.008 nM | 0.011 nM | 0.017 nM | 0.018 nM | 0.007 nM | 0.002 nM | 0.064 nM | –
4 | B4 | – | – | – | – | – | – | – | – | – | – | – | – | – | EC50 of in vitro killing, AMO-1 [5]: 0.518 nM; EC50 of in vitro killing, EJM [5]: 0.132 nM; EC50 of in vitro killing, L363 [5]: 0.127 nM; EC50 of in vitro killing, MOLP-2 [5]: 0.032 nM; EC50 of in vitro killing, NCI-H929 [5]: 0.311 nM; EC50 of in vitro killing, OPM-2 [5]: 0.033 nM; EC50 of in vitro killing, RPMI [5]: 0.011 nM
5 | B5 | – | – | 0.003 nM | 0.001 nM | 0.001 nM | 0.002 nM | 0.006 nM | 0.003 nM | 0.003 nM | 0.001 nM | 0.004 nM | 0.001 nM | 0.006 nM | –
